Legend:
Assay in all cases: control-mAb-coated microbeads on monocyte-derived macrophages (which carry hDCL-1, MMR and DEC-205), confocal microscopy
[1] = biological target: MMR/CD206 on human monocyte-derived macrophages (human) (UniProt P22897)
[2] = biological target: human DCL-1 (native, on human leukocytes) (human) (UniProt Q8IX05)
[3] = biological target: DEC-205 (CD205) on human monocyte-derived macrophages (human) (UniProt O60449)
UniProt O60449, sequence (O60449 28-1722): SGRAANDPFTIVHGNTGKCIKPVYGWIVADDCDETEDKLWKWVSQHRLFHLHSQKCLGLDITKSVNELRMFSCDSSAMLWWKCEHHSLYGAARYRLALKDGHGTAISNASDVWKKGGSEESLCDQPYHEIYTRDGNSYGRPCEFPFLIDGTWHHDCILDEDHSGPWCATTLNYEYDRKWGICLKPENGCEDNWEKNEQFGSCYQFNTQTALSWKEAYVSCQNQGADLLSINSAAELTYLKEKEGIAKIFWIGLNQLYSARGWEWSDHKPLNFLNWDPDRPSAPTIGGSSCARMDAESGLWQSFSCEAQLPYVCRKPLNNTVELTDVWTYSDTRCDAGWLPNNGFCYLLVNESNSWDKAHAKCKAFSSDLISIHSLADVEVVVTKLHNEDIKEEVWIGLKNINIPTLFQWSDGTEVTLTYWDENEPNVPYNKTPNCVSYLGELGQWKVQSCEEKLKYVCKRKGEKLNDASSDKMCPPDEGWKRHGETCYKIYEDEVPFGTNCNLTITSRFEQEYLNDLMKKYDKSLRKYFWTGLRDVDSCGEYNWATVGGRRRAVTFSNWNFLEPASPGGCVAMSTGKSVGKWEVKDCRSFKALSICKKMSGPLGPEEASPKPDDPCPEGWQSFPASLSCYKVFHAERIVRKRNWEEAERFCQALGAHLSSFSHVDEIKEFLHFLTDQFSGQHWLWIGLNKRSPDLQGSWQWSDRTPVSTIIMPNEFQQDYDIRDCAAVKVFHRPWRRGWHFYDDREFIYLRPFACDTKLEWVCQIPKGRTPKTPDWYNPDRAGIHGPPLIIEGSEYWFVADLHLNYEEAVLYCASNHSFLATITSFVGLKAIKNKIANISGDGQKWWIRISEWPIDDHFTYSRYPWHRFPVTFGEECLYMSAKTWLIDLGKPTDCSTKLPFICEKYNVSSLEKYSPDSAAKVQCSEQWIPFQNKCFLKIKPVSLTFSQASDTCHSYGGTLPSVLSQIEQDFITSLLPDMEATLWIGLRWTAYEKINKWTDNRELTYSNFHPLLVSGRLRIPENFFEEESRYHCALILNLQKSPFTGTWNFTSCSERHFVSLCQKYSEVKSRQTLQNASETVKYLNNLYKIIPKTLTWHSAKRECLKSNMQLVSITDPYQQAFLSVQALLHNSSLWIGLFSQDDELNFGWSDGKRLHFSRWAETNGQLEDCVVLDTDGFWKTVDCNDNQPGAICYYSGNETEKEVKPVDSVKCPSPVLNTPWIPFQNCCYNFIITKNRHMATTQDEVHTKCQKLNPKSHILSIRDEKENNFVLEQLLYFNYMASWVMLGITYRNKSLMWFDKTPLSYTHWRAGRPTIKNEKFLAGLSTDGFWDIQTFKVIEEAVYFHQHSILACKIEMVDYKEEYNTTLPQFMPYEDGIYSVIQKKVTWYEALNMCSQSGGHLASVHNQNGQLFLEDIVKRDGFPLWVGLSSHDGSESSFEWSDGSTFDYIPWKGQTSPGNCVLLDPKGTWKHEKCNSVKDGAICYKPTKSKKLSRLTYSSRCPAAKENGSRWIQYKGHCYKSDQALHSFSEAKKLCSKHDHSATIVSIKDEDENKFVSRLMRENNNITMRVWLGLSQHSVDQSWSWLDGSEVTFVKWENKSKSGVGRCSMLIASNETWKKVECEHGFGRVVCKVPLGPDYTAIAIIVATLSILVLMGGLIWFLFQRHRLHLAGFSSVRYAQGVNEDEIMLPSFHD

UniProt Q8IX05, sequence (Q8IX05 23-232 limits assumed): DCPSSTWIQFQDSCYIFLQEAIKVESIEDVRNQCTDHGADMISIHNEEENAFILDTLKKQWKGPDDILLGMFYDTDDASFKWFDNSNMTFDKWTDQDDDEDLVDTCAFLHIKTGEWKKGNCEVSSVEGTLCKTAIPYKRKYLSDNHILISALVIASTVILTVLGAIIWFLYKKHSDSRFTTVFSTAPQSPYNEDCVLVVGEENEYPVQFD
UniProt P22897, sequence (P22897 19-1456): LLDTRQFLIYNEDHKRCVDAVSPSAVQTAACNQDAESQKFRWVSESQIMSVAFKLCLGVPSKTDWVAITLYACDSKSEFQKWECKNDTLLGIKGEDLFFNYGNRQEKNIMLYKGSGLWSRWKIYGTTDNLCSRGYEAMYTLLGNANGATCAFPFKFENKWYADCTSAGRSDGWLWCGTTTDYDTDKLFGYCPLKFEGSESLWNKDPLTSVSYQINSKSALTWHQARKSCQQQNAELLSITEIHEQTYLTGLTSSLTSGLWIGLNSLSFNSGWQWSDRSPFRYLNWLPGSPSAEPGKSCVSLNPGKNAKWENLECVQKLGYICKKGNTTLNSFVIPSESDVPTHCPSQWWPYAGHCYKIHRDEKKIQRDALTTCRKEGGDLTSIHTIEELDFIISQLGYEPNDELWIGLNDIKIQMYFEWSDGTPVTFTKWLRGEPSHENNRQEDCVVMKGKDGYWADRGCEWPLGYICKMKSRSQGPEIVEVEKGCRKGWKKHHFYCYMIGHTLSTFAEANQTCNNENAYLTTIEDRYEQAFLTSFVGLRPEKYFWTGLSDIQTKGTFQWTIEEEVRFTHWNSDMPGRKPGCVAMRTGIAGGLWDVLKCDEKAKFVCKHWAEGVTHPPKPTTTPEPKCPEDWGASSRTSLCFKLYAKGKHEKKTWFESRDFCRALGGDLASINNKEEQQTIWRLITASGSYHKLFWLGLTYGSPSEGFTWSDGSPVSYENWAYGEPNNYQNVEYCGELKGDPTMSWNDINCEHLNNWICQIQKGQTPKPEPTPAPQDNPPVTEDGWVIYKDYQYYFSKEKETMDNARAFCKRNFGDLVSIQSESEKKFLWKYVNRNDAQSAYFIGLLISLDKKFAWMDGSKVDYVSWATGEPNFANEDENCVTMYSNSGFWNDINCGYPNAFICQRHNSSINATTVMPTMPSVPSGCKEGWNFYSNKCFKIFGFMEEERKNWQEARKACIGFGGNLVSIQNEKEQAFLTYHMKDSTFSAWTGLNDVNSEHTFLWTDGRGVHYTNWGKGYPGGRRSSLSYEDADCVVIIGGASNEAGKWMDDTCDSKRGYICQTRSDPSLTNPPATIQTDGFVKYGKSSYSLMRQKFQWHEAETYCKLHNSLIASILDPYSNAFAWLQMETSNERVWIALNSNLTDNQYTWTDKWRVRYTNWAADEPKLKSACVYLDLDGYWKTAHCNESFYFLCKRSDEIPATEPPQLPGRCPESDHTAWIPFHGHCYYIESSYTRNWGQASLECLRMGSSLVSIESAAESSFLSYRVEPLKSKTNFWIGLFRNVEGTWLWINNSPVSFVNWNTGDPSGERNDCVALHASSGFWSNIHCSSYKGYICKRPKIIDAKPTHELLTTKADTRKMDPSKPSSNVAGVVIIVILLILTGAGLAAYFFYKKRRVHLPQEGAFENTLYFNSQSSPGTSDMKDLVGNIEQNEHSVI

microbeads bound per cell [1]: 0.09 beads/cell | microbeads bound per cell [2]: 0.09 beads/cell | microbeads bound per cell [3]: 0.09 beads/cell
Substance: isotype control mAb 401.21 (antibody)

From US20100303819A1
